Reference: the supplement of paper PMC9170038

Key:
[1] = test system: MS2 coat protein; assay: apparent KD of MS2 coat protein, switch ON state; designed switch direction (-1 OFF switch, 1 ON switch): -1; higher = weaker reporter binding; details: FMN input: 0 or 200 uM; Eterna round: R93 (includes R88 designs)
In short: (§1)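 Designed RNA switches were transcribed on-chip from Illumina sequencing clusters. SNAP-549-labelled MS2 coat protein was titrated onto them in twofold steps from 0.7 or 1.5 nM to 3 µM in 100 mM Tris-HCl pH 7.5, 80 mM KCl, 4 mM MgCl2, either without or with constant ligand. Apparent KD reflects the per-design median of normalised cluster binding-curve fits.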

[2] = test system: MS2 coat protein; assay: apparent KD of MS2 coat protein, switch OFF state (with FMN for OFF switches, without FMN for ON switches); designed switch direction (-1 OFF switch, 1 ON switch): -1; higher = weaker reporter binding; details: FMN input: 0 or 200 uM; Eterna round: R93 (includes R88 designs)
In short: as §1

Sequence | apparent KD of MS2 coat protein [1] | apparent KD of MS2 coat protein [2]
GGUUUGCAAGGAUAUACAUGAGGAUCACCCAUGUGAGAGAAAAAAGUGAGAAAGAAAAGUAGAAGGUGCGGACG [salish99-ex3-121] | 22.3 nM | 62.7 nM
AAAAUACGAGGAUAUACAUGAGGAUCACCCAUGUCAAAAAAUGACUACACAAAAGAAAGUAGAAGGCGUAAAAA [Ex 3 May 16] | 25.3 nM | 30.4 nM
AAAAUGUGAGGAUAUCCGAAGGCGUCUGAUAGACGAGGCUAGGAGAAGGCACAUGAGGAUCACCCAUGUAAAAA [Banishment 11 - Jieux - Exclusion 4] | 78.8 nM | 137 nM
AAAAAGGGAGGAUAUACAGGAGGUAAGGAAAAAAAAAAAAAACAUGAGGAUCACCCAUGUAGAAGGCUUAAAAA [Ecls2-IV] | 30.3 nM | 22 nM
AAAUAGCAAGGAUAUACAUGAGGAUCACCCAUGUGAACCAGGUAUGGAAUAGAAUAGAGUAGAAGGUGCAAAUA [Mod 3 of Ex 3 Tesla 8 - Jieux - Exclusion 3] | 30.2 nM | 37.8 nM
AGUCAGAGAGGAUAUACAUGAAAAAAAAAAGUAAGAUCCCUACAUGAGGAUCACCCAUGUAGAAGGCUCUGACA [Ex2 Design 137: Sub-opt 1] | 60.5 nM | 26.8 nM
GGCUGGCGAGGAUAUACAUGAGGAUCACCCAUGUGAGAGAAAAAAGUGAGAAAGAAAAGUAGAAGGCGCUGGCG [salish99-ex3-55] | 34.1 nM | 81.4 nM
AAGAAGGUAGGAUAUACAAAAUAAAAGAAAAGAAAGAAAGAACAUGAGGAUCACCCAUGUAGAAGGGCCAAGAA [Khendjer] | 84.2 nM | 35.3 nM
AAAAAACAUGAGGAUCACCCAUGUGAGGAUAUGCUAUGGAAAUAAAAAAUAAAACAUAGCAGAAGGCACACCAA [Mat - Exclusion 1 - Eli mod - D44] | 31 nM | 42.9 nM
AGGGAGUGAGGAUAUGCGAAAGAAAAAGAAAAAAAAAAAAAGCAGAAGGUACAUGAGGAUCACCCAUGUAAAAA [milkweed 6] | 29.8 nM | 29.1 nM
AAAUAGACAGGAUAUGCAUGAAAAUUAAAAAAAAAAAAAAAACAUGAGGAUCACCCAUGUAGAAGGGUCAAAAA [Exclusion 2 - Omei 1] | 66.6 nM | 75.8 nM
AAAGGACGAGGAUAUACAUGAGGAUCACCCAUGUAAAAAACGUAAUAAAAGAACUUAUGUAGAAGGCGUCCAAA [69%, Moding Meechl, 7] | 60.9 nM | 221 nM
CUUAAGUCAGGAUAUGUCAAAAGUCACAAAAGUGACAAAAGACAGAAGGGACAUGAGGAUCACCCAUGUAAAAA [Starry Exclusion 4.5 (starryjess round 1 mod)] | 78.3 nM | 139 nM
AAGAACGCAGGAUAUACAUGAGGAUCACCCAUGUAAAAGAAAGAAGGGAAAGAGAAAAGUAGAAGGGCGAAGAA [Usermaatre-setepenamun Iuput I] | 35.3 nM | 41.8 nM
ACGAACCUAGGAUAUACAUGAGGAUCACCCAUGUACAACUAUCCAUGAAUGACACUCGGUAGAAGGAGGAUCAA [Rileenen] | 15 nM | 22.9 nM
AGGGAACAUGAGGAUCACCCAUGUGAGGAUAUAGAAAAGAAAAGAAAAGAAAGAAGAACUAGAAGGUACAAGAA [Merenre Nemtyemsaf I] | 26.1 nM | 30 nM
AAGGAGUAAGGAUAUCGGAAAGGACACGAAAGUGACAAAGACGAGAAGGUACAUGAGGAUCACCCAUGUAAAAA [milkweed 23] | 24.9 nM | 14.5 nM
AACAGGACAGGAUAUACAUGAGGAUCACCCAUGUGAGAAUUUAGCAGCGUACCACACAGUAGAAGGGUCAUGGA [Ruby 23] | 40.8 nM | 48.6 nM
AAAAAACAUGAGGAUCACCCAUGUGAGGAUAUGUACGAAAUAAAAUAAAAAUAAAAGUACAGAAGGCACAAAAA [Mat - Exclusion 1 - Eli mod - D4] | 40.2 nM | 46.6 nM
ACUUGACAUGAGGAUCACCCAUGUCAGGAUAUAGUAGGACAAAUAAAUAAAAGUUCUACUAGAAGGGAUAUGGA [Design 18: G-U+ 3] | 16.7 nM | 15.7 nM
